Test results published in the Immune Epitope Database (IEDB).

How the values were obtained:
[1] = biological target: HLA-B*15:03; assay: IEDB peptide-MHC binding, purified MHC/competitive/radioactivity; filed as Kd, often an IC50 or EC50 that approximates it; ≥ and ≤ were set here for values at or beyond the usual limits of such assays
[2] = biological target: HLA-A*03:01; assay: IEDB peptide-MHC binding, purified MHC/competitive/fluorescence; ≥ and ≤ were set here for values at or beyond the usual limits of such assays
[3] = biological target: HLA-A*11:01; assay: as above
[4] = biological target: HLA-A*24:02; assay: as above
[5] = biological target: HLA-A*26:01; assay: IEDB peptide-MHC binding, purified MHC/competitive/radioactivity; filed as Kd, often an IC50 or EC50 that approximates it; ≥ and ≤ were set here for values at or beyond the usual limits of such assays
[6] = biological target: HLA-A*68:02; assay: as above
[7] = biological target: HLA-B*51:01; assay: as above; conditions: source organism: Dengue virus 2 Jamaica/1409/1983
[8] = biological target: HLA-A*02:01; assay: IEDB peptide-MHC binding, purified MHC/competitive/fluorescence; ≥ and ≤ were set here for values at or beyond the usual limits of such assays
[9] = biological target: HLA-A*30:02; assay: IEDB peptide-MHC binding, purified MHC/competitive/radioactivity; filed as Kd, often an IC50 or EC50 that approximates it; ≥ and ≤ were set here for values at or beyond the usual limits of such assays; conditions: source organism: Dengue virus 3 Martinique/1243/1999
[10] = biological target: HLA-B*57:01; assay: as above
[11] = biological target: HLA-B*53:01; assay: as above; conditions: source organism: Dengue virus 1 Brazil/97-11/1997
[12] = biological target: HLA-A*30:01; assay: as above
[13] = biological target: HLA-A*32:01; assay: as above
[14] = biological target: HLA-B*08:01; assay: as above
[15] = biological target: HLA-B*15:01; assay: as above
[16] = biological target: HLA-A*02:02; assay: as above
[17] = biological target: HLA-A*02:03; assay: as above
[18] = biological target: HLA-A*02:06; assay: as above
[19] = biological target: HLA-A*31:01; assay: as above; conditions: source organism: Vaccinia virus WR
[20] = biological target: HLA-A*33:01; assay: as above; conditions: source organism: Vaccinia virus WR
[21] = biological target: HLA-A*68:01; assay: as above; conditions: source organism: Vaccinia virus WR
[22] = biological target: HLA-A*02:01; assay: as above
[23] = source organism: Vaccinia virus WR
[24] = source organism: Zaire ebolavirus
[25] = source organism: Dengue virus 2 Jamaica/1409/1983
[26] = source organism: Dengue virus 3 Martinique/1243/1999
[27] = source organism: Dengue virus 1 Brazil/97-11/1997
[28] = source organism: Vaccinia virus
[29] = source organism: Lassa virus GA391
[30] = source organism: Vaccinia virus Copenhagen
[31] = source organism: Trypanosoma cruzi
[32] = source organism: Human immunodeficiency virus type 1 (CLONE 12)
[33] = source organism: Sudan ebolavirus
[34] = source organism: Dengue virus 4 Philippines/H241/1956

AEMMAPSMF
Kd [1, 23]: 0.0172 µM

ASLTPKAQR
IC50 ([2]; source organism: Variola virus): 2.32 µM
IC50 ([3]; source organism: Variola virus): 0.29 µM

DQEKKILMN
IC50 [2, 24]: ≥ 386 µM
IC50 [3, 24]: ≥ 193 µM
IC50 [4, 24]: ≥ 303 µM

ETILELTDAL
Kd [5, 25]: 0.277 µM
Kd [6, 25]: 0.134 µM

FSPGTSGSPI
Kd [6, 25]: 0.294 µM
Kd [7]: 12.8 µM

FTQQALSSF
Kd [1, 23]: 0.00643 µM

GIYIEGLMH
IC50 [8, 24]: ≥ 180 µM
IC50 [2, 24]: 16.1 µM
IC50 [3, 24]: 9.23 µM

GKRSNTTGK
IC50 [8, 24]: ≥ 14300 µM
IC50 [2, 24]: 52.6 µM

HSFEEMYRH
IC50 [2, 24]: 49.4 µM
IC50 [3, 24]: 3.29 µM

IAIGIITLY
Kd [5, 26]: 0.013 µM
Kd [9]: 2.68 µM
Kd [10, 26]: 0.00362 µM

IGIGILLTW
Kd [11]: 5.45 µM
Kd [10, 27]: 0.272 µM

IKGTSGTEK
IC50 [2, 28]: ≥ 187 µM

IKVLVEHGF
Kd [12, 23]: 5.93 µM
Kd [13, 23]: 11.3 µM
Kd [14, 23]: ≥ 77.7 µM
Kd [15, 23]: 9.69 µM
Kd [1, 23]: 0.473 µM

ILAADLEKL
Kd [16, 29]: 0.0323 µM
Kd [17, 29]: 0.02 µM
Kd [18, 29]: 0.195 µM
Kd [6, 29]: 4.29 µM

ILMGLDKGW
Kd [10, 27]: 0.049 µM

IQTMDGQEL
Kd [1, 23]: 0.144 µM

IQYDRRSFF
Kd [1, 30]: 0.000154 µM

ISTYPGNTF
Kd [1, 23]: 0.000479 µM

ITGGRRTRR
IC50 [8, 24]: ≥ 177 µM
IC50 [2, 24]: 6.85 µM
IC50 [3, 24]: 9.09 µM

IVYSLVTTI
Kd [12, 23]: 0.016 µM
Kd [13, 23]: 0.0036 µM
Kd [14, 23]: 13.6 µM
Kd [15, 23]: 0.542 µM
Kd [1, 23]: 1.86 µM

KSISKSNAK
IC50 [2, 30]: 3.02 µM
IC50 [3, 30]: 1.68 µM
Kd [19]: 0.000454 µM
Kd [20]: ≥ 33.9 µM
Kd [21]: 0.101 µM

LGFLNEDHW
Kd ([10]; source organism: Murray valley encephalitis virus (strain MVE-1-51)): 0.172 µM

LKSNADWFF
Kd [1, 30]: 0.0102 µM

LLGLWGFAAQ
Kd [22, 31]: 1.1 µM
Kd [16, 31]: 1.24 µM
Kd [17, 31]: 0.394 µM
Kd [18, 31]: 0.462 µM
Kd [6, 31]: 1.82 µM

LRYLLFGIK
IC50 [8, 28]: ≥ 825 µM
IC50 [2, 28]: 15.4 µM
IC50 [3, 28]: ≥ 128 µM
IC50 [4, 28]: 13.6 µM

LTSRDGEPRM
Kd [12, 26]: 10.9 µM
Kd [10, 26]: 1.32 µM

MLMFIFTGI
Kd [12, 23]: 0.281 µM
Kd [13, 23]: 1.45 µM
Kd [14, 23]: 0.265 µM
Kd [15, 23]: 1.41 µM
Kd [1, 23]: 1.01 µM

PLTFGWCYKL
Kd [22, 32]: 6.85 µM
Kd [16, 32]: ≥ 29.4 µM
Kd [17, 32]: 19.3 µM
Kd [18, 32]: 13.2 µM
Kd [6, 32]: ≥ 20.1 µM

RAYMATTIL
Kd [1, 23]: 0.0175 µM

RISDRATRK
IC50 [2, 33]: 1.86 µM
IC50 [3, 33]: 0.651 µM

RKISSKNSM
Kd [1, 23]: 0.000114 µM

RKVKSYNYM
Kd [1, 23]: 0.00258 µM

RLHSNTILK
Kd [12, 23]: 0.0485 µM
Kd [13, 23]: 6.35 µM
Kd [14, 23]: ≥ 38.6 µM
Kd [15, 23]: 2.22 µM
Kd [1, 23]: 8.54 µM

SLNSIFNTF
Kd [13, 30]: 0.0138 µM
Kd [14, 30]: ≥ 30.6 µM
Kd [15, 30]: 0.00222 µM
Kd [1, 30]: 0.209 µM

SLSHDFTLV
Kd [22, 31]: 0.0126 µM
Kd [16, 31]: 0.000305 µM
Kd [17, 31]: 0.00165 µM
Kd [18, 31]: 0.00774 µM
Kd [6, 31]: 0.6 µM

STHKLSLTK
IC50 ([8]; source organism: Variola virus): ≥ 255 µM
IC50 ([2]; source organism: Variola virus): 2.93 µM
IC50 ([3]; source organism: Variola virus): 0.193 µM

TTANWLWAL
Kd [18, 34]: 0.00593 µM
Kd [5, 34]: 3.08 µM
Kd [6, 34]: 0.00636 µM

TTIAVSMANI
Kd [5, 25]: 3.51 µM
Kd [6, 25]: 0.00387 µM

VLQRNCAAYL
Kd ([22]; source organism: Homo sapiens): 0.0957 µM
Kd ([16]; source organism: Homo sapiens): 0.018 µM
Kd ([17]; source organism: Homo sapiens): 0.0948 µM
Kd ([6]; source organism: Homo sapiens): ≥ 60 µM

VRKNFTSSF
Kd [1, 23]: 0.192 µM

YAFSKYMSF
Kd [15, 23]: 0.00899 µM
Kd [1, 23]: 0.00177 µM
